Our source for the Kd values is US20180118799A1 (NATIONAL INSTITUTE OF ADVANCED INDUSTRIAL SCIENCE AND …, published 2018).

Broadly, the Kd is a measure of binding affinity in units of concentration. A higher Kd goes with lower affinity.

Test [1] has as its target T1, Fc-fusion G-CSF receptor.
T1 construct: also called granulocyte colony-stimulating factor receptor
T1 sequence (Q99062 whole entry, species assumed, looked up): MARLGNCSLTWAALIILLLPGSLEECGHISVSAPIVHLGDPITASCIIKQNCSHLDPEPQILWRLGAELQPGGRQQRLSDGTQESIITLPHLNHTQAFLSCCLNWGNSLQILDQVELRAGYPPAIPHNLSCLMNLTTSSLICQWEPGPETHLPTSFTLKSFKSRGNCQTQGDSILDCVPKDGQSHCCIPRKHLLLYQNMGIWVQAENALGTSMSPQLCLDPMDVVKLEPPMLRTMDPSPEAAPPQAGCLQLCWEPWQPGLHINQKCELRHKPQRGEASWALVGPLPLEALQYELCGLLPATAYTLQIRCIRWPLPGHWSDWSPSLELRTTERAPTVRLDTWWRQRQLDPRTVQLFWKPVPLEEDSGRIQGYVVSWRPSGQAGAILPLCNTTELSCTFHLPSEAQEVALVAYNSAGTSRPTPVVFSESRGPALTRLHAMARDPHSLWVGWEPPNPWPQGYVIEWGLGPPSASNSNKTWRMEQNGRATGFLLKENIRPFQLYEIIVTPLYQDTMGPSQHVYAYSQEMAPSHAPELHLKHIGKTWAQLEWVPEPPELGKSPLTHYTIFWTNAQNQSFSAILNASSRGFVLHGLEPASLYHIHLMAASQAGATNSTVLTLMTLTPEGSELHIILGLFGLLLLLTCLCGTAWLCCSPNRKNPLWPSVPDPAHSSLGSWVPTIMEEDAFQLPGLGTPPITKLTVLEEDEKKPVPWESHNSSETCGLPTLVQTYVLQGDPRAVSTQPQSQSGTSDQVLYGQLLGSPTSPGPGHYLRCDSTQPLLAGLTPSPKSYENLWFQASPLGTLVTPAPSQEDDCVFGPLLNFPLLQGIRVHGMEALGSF
The test can be described thus: SPR, Biacore T100, Fc-fusion G-CSF receptor captured on immobilized Protein G, single kinetic mode, 25 C (Example 8). The method, then:
First, Protein G was immobilized on a flow cell of a sensor chip CMS (GE Health care) by using a maleimide coupling reaction. Next, a running buffer HBS-P (10 mM HEPES pH 7.4, 150 mM NaCl, and 0.05% v/v Surfactant P20) in which an Fc-fusion G-CSF receptor had been dissolved was added to immobilize the receptor on the chip. The SPR measurement was carried out using Biacore T100 (Biacore) and the reaction temperature was 25° C. A 2-fold dilution series from 1.25 nM to 20 nM of the sample solution was prepared, and a single kinetic mode was used for measurement and analysis.
(§1) The observation results were analyzed using BIAevaluation version 4.1 to calculate a dissociation constant.
In general terms: SPR reads the build-up and loss of mass on a sensor chip optically.

The target in test [2] is T1, Fc-fusion G-CSF receptor. In words: SPR, Biacore T200, Fc-fusion G-CSF receptor captured on immobilized Protein A, single kinetic mode, 25 C (Example 19, remeasured). The method, then:
(§2) First, commercially available Protein A (Nacalai Tesque, Inc.) was immobilized on a flow cell of a sensor chip CM5 (GE Health care) by using an amine coupling reaction. Next, a running buffer HBS-P (10 mM HEPES pH 7.4, 150 mM NaCl, and 0.05% v/v Surfactant P20) in which an Fc-fusion G-CSF receptor had been dissolved was added to immobilize the receptor on the chip. The SPR measurement was carried out using Biacore T200 (Biacore) and the reaction temperature was 25° C. A 2-fold dilution series from 1.25 nM to 20 nM of the sample solution was prepared, and a single kinetic mode was used for measurement and analysis. When compared with Example 8, this Example had improvements such as use of Biacore T200, which has higher sensitivity than Biacore T100, and use of commercially available Protein A. The improvements helped increase the sensitivity and reproducibility of measurement. Then, the linear G-CSF, G-CSF(C177), and G-CSF(C163) as measured in Example 8 were remeasured and the resulting analysis values were used for comparison.

Test [3] addresses T1, Fc-fusion G-CSF receptor. The test can be described thus: SPR, Biacore T200, Fc-fusion G-CSF receptor captured on immobilized Protein A, single kinetic mode, 25 C (Example 19). The method, then:
as §2, §1

B1: G-CSF(C163) (ligand)
chain: SQSFLLKSLEQVRKIQGDGAALQEKLCATYKLCHPEELVLLGHSLGIPWAPLSSCPSQALQLAGCLSQLHSGLFLYQGLLQALEGISPELGPTLDTLQLDVADFATTIWQQMEELGMAPALQPTQGAMPAFASAFQRRAGGVLVASHLQSFLEVSYRVLRHLG
modifications: backbone cyclized: amino group of serine at the N-terminus and carbonyl group of glycine at the C-terminus linked by a peptide bond
notes: also called cyclized G-CSF(C163)
B1: the results for the Kd with Fc-fusion G-CSF receptor [1] and in the test with Fc-fusion G-CSF receptor [2] were 0.57 nM and 0.1 nM, respectively.

B2: linear control G-CSF (ligand)
chain: MAPLGPASSLPQSFLLKSLEQVRKIQGDGAALQEKLCATYKLCHPEELVLLGHSLGIPWAPLSSCPSQALQLAGCLSQLHSGLFLYQGLLQALEGISPELGPTLDTLQLDVADFATTIWQQMEELGMAPALQPTQGAMPAFASAFQRRAGGVLVASHLQSFLEVSYRVLRHLAQP
notes: Linear polypeptide of 175 amino acids; also called linear G-CSF
Regarding B2, the Kd amounted to 0.43 nM with Fc-fusion G-CSF receptor [1] and 0.08 nM in the test with Fc-fusion G-CSF receptor [2].

B3: filgrastim (ligand)
chain: MTPLGPASSLPQSFLLKCLEQVRKIQGDGAALQEKLCATYKLCHPEELVLLGHSLGIPWAPLSSCPSQALQLAGCLSQLHSGLFLYQGLLQALEGISPELGPTLDTLQLDVADFATTIWQQMEELGMAPALQPTQGAMPAFASAFQRRAGGVLVASHLQSFLEVSYRVLRHLAQP
notes: Its source in the assay is not described
In the case of B3, the dissociation constant Kd in the test with Fc-fusion G-CSF receptor [3] was 0.27 nM.

B4: G-CSF(C170) (ligand)
chain: SGPASSLPQSFLLKSLEQVRKIQGDGAALQEKLCATYKLCHPEELVLLGHSLGIPWAPLSSCPSQALQLAGCLSQLHSGLFLYQGLLQALEGISPELGPTLDTLQLDVADFATTIWQQMEELGMAPALQPTQGAMPAFASAFQRRAGGVLVASHLQSFLEVSYRVLRHLG
modifications: backbone cyclized: amino group of serine at the N-terminus and carbonyl group of glycine at the C-terminus linked by a peptide bond
notes: 170 amino acids; also called cyclized G-CSF(C170)
Turning to B4, in the test with Fc-fusion G-CSF receptor [3], the Kd turned out to be 0.05 nM.

B5: G-CSF(C166) (ligand)
chain: SSLPQSFLLKSLEQVRKIQGDGAALQEKLCATYKLCHPEELVLLGHSLGIPWAPLSSCPSQALQLAGCLSQLHSGLFLYQGLLQALEGISPELGPTLDTLQLDVADFATTIWQQMEELGMAPALQPTQGAMPAFASAFQRRAGGVLVASHLQSFLEVSYRVLRHLG
modifications: backbone cyclized: amino group of serine at the N-terminus and carbonyl group of glycine at the C-terminus linked by a peptide bond
notes: also called cyclized G-CSF(C166)
For the molecule B5, in the test with Fc-fusion G-CSF receptor [3], binding was put at a Kd of 0.06 nM.

B6: G-CSF(C177) (ligand)
chain: SMAPLGPASSLPQSFLLKSLEQVRKIQGDGAALQEKLCATYKLCHPEELVLLGHSLGIPWAPLSSCPSQALQLAGCLSQLHSGLFLYQGLLQALEGISPELGPTLDTLQLDVADFATTIWQQMEELGMAPALQPTQGAMPAFASAFQRRAGGVLVASHLQSFLEVSYRVLRHLAQPG
modifications: backbone cyclized: amino group of serine at the N-terminus and carbonyl group of glycine at the C-terminus linked by a peptide bond
notes: Cyclized with split inteins; also called cyclized G-CSF(C177)
With B6, the Kd turned out to be 0.57 nM with Fc-fusion G-CSF receptor [1] and 0.06 nM with Fc-fusion G-CSF receptor [2].
